From the RNAGym collection of RNA variant scans (doi:10.1073/pnas.2313332121)

B1: TPR t1 (parent)
chain: GACCAAUCUGCCCUCAGAGCUCGAGAACAUCUUCGGAUGCAGAGGAGGCAGGCUUCGGUGGCGCGAUAGCGCCAACGUCCUCAACCUCCAAUGCAUCCCACCACAUGAUGAUGCCUGAAGAGCCUUGGUUUUUUG

Variants of: B1
Assay: polymerase ribozyme fitness, log enrichment relative to wild type (log ratio); higher = more active; in vitro selection for triplet polymerase activity
In short: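 Mutant libraries for each subunit of a heterodimeric triplet polymerase ribozyme were made by PCR and then transcribed. Each library underwent one round of in vitro selection in triplicate: annealing with a biotinylated primer, the partner subunit and triplets, frozen incubation at −7 °C, gel excision of extended constructs, streptavidin-bead capture and RT-PCR. Input and output libraries were Illumina-sequenced, and only genotypes with ≥10 input reads and ≥1 read per output were kept. Fitness is the logarithm, base 2, of genotype enrichment over wild-type enrichment, computed from inverse-variance-weighted replicate averages.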

Variant | polymerase ribozyme fitness (log ratio)
GACCAAUCUGGCCUCAGAGCUCGAGAACAUCUUCGGAUGCAGAGGAGGCGGGCUUCGGUGGCGCGAUAGCGCCAACGUCCUCAACCUCCAAUGCAUGCCACCACAUGAUGAUGCCUGAAGAGCCUUGGUUUUUUG | -2.97
GACCAAUCUGGCUUCAGAGCUCGAGAACAUCUUCGGAUGCAGAGGAGGCAGGCUUCGGUGGCGCGAUAGGGCCAACGUCCUCAACCUCCAAUGCAUACCACCCCAUGAUGAUGCCUGAAGAGUCUUGGUUUUUUG | -7.22
GACCAAUCUGGCCUCAGAGCUCGAGAACAUCUUCGGAUGCAGAGGAGGCCGGCUUCGGUGGCGCGAUAGCGCCAUCGUCCUCAACCUCCAAUGCAUACCACUACAUGAUGAUGCCUGAAGAGCCUUGGUUUUUUG | -4.52
GACCAAUCUGGCCUCAGAGCUCGAGAACAUCUUCGGAUGCAGAGGCGGCAGGCUUCGGUGGCGCGAUAGCGCCAACGUCCUCAACCUCCAAUGCAUCCCACCACAUGAUGAUGCCUGAAGAGCCUUGGUUUUUUG | -1.01
GACCAAUCUGGCCUGAGAGCUCGAGAACAUCUUCGGAUGCAGAGGAGGCAGGCUUCGGUGGCGCGAUAGCGCCAACGUCCUCAACCUCCCAUGCAUCCCACCACAUGAUAAUGCCUGAAGAGCCUUGGUUUUUUG | -4.74
GACCAAUCUGGGCUCAGAGCUCGAGAACAUCUUCGGAUGCAGAGGAGACAGGCUUCGGUGGCGCGAUAGCGCCAACGUCCUCAACCUCCAAUGCAUCCCACCACAUGAUGAUGCCUGAACAGCCUUGGUUUUUUG | 0.765
GACCAAUCUGGCAUCUGAGCUCGAGAACAUCUUCGGAUGCAGAGGAGGCAGGCUUCGGUGGCGCGAUAGCGCCAACGUUCUCAACCUCCAAUGCAUCCCACCACAUGAUGAUGCCUGAAGAGCCUUGGUUUUUUG | -2.88
GACCAAUCUGGCCUAAGAGCUCGAGAACAUCUUCGGAUGCAGAGGAGGCAGGCUUCGGUGGCGCGAUAGCGCCAACGUCCUCAACCUCCAAUGCUUCCCACCACAUGAUGAUGCCUGAAGAGCCUUGGUAUUUUG | -2.76
GACCAAUCUGGCCUCAGAGGUCGGGAACAUCUUCGGAUGCAGAGGAGGCAGGCUUCGGUGGCGCGAUAGCGCCAACGUCCUCAACCUCCAAUGCAUCCCACCACAUGAUGAUGCCCGAAGAGCCUUGGUUUUUUG | -6.56
GACCAAUCUGGCAUCAGAGCUCGAGAACAUCUUCGGAUGCAGAGGAGGCAGGCUUCGGUGGCGCGAUAGCGCCAACGUCCUCAACCUCCAAUGCAUCCCACCACAUGAUGAUGCCUGAAGAGCCUUGGUUUUUUG | -2.58
GACCAAUCUGGCCUCAGAGCUCGAGAACAUCUUCGGAUGCAGAGGAGGCAGGCUUCGGUGGCGCGAUAGCGCCAACGUCCUCAACCUCCAAUGCUUCCCACCACAUGAUGAUGCCUGAAGAGCCUUGGCUUUUUG | -1.01
GACCAAUCUGGCCUCAGAGCUCGAGAACAUCUUCGGAUGCAGAGGAGGCAGGCUUCGGUGGCGCGAUAGCGCCAACGUCCUCAACCUCCAAUGCAUCCCACCACAUGAUGGUGCCUGAAGAGCCUUGGUUUUUUG | 1.17
GACCAAUCUGGCCUCAGAGCUCGAGAACAUCUUCGGAUGCAGAGGAGGCAGGCUUCGGUGGCGCGAUAGCGCCAACGUCCUCAACCUCCAAUGCAUCCCACCACAUGAUGUUGCCUGAAGAGCCUUGGUUUUUUG | -2.19
GACCAAUCUGGCCUCAGAGCUCGAGAACAUCUUCGGAUGCAGAGGAGGCAGGCUUCGGUGGCGCGAUAGCGCCAACGUCCUCAACCUCCAAUGCAUCCCACCACAUGCUGAUGCCUGAAGAGCCUUGGUUUUUUG | -4.07
GACCAAUCUGGUCUCAGAGCUCGAGAACAUCUUCGGAUGCAGAGGAGGCAGGUAUCGGUGGCGCGAUAGCGCCAACGUCCUCAACUUCCGAUGCAACCCAUCACAUGAUGAUGCCUGAAGAGCCUUGGUUUUUUG | -2.39
GACCAAUCUGGCCUCAGAGCUCGAGAACAUCUUCGGAUGCAGAGGGGGCAGGCUUCGGUGGCGCGAUAGCGCCAACGUCCUCAACCUCCAAUGCAUCCCACCACAGGAUGAUGCCUGAAGAGCCUUGUUUUUUUG | -2.63
GACCAAUCUGGCCUUAGAGCUCGACAACAUCUUCGGAUGCAGAGGAGGCAGGCUUCGGUGGCGCGAUACCGCCAACGUCCUCAACCUCCAAUGCAUCCCACCACAUGAUGCUGCCUGGAGAGCCUUGGUUUUUUG | -6.31
GACCAAUCUGGCCUCAGAGCUCGAGAACAUCUUCGGAUGCAGAGGAGGCAGGCUUCGGUGGCGCGAUAGCGCCAACGUCCUCAACCUCCAAUGCAUCCCACCACAUGAUGAUGCCUGAAGGGCCUUUGUUUUUUG | 0.00144
GACCAAUCUGGCCUCAGAGUUCGAGAACAUCUUCGGAUGCAGAGGGGGCAGGCUUCGGUGGCGCGAUAGCGCCAACGUCCUCGACCUCCAAUGCGUCCCACCACAUGAUGAUGCCUGAAGAGCCUUGGUUUUUUG | -1.9
GACCAAUCUGGUCUCAGAGCGCGAGAACAUCUUCGGUUGCAGAGGAGGCAGGCUUCGGUGGCGCGAUAGCGCCAACGUCCUCAACCUCCAAUGCAUCCCACCACAUGAUGAUGCCUGAAGAGCCUUGGUUUUUUG | -2.2
GACCAAUCUGGCCUCAGAGCUCGAGAACAUCUUCGGAUGCAGAGGAGGCAGGCUUCGGUGGCGCGAUAGCGCCAACGUCCUCUACCUCCAAUGCAUCCCACCACAUGAUGAUGCCUGAAGAGCCUGGGUUUUUUG | -0.958

Variant | polymerase ribozyme fitness (log ratio)
GACCAAUCUGGGCUCAGAGCUCGAGAACAUCUUCGGAUGCAGAGGAGGUAGGCUGCGGUGGCGCGAUAGCGCCAACGUCCUCAACCUCCAGUGCAUCCCACCACAUGAUGAUGCCUGAAGAGCCUUGGUUUUUUG | -2.61
GACCAAUCUGGCCUCAGAGCUCGAGAACAUCUUCGGAUGCAGCGGAGGCAGGCUUCGGUGGUGCGAUAGCGCCAACGUCCUCAACCUCCAAUGCAUCCCACCACAUGAUGAUGCCUGAAGAGCCUUGGCGUUUUG | -3.83
GACCAAUCUGGCCUAAGAGCUCGAGAACAUCUUCGGUUGCAGAGGAGGCAGGCUUCGGUGGCGCGAUAGCGCCAACGUCCUCAACCUCCAAUGCAUCCUACCACAUGAUGCCGCCUGAAGAGCCUUGGUUUUUUG | -4.47
GACCAAUCUGGUCUCAGAGCUCGAGAACAUCUUCGGAUGCACAGGAGGCAGGCUUCGGUGGCGCGAUACCGCCAACGUCCUCAACCUCCAAUGCAUCCCACCACAUGAUGAUGCGUGAAGAGCCUUGGUUUUUUG | -6.44
GACCAAUCUGGCCUCAGAGCUCGAGAACAUCUUCGGAUGCAGAGGAGGCAGGCUUCGGUGGCGCGAUAGCGCCAACGUCCUCAACCUCCAAUGCCUCCCACCACAUGAUGAUGGCUGAAAAGCCUUGGUUUUUUG | -6.61
GACCAAUCUGGACUCAGAGCUCGAGAACAUCUUCGCAUGCAGAGGAGGCAGGCUUCGGUGGCGCGAUAGCGUUAACGUCCUCAACCUCCAAUGCAUCCCACCACAUGAUGAUGCCUGAAGAGCCUUGGUUUUUUG | -1.07
GACCAAUCUGGCCUCAGAGCUCGAGAACAUCUUCGGAUGCAGAGGAGGCAGGCUUCGGUGGCGCGAUAGCGCCAACGUCCUCAACCUCCAAUGCAUCCCACCACUUGAUGAAGCCUGAGAAACCUUGGUUUUUUG | -0.827
GACCAAUCUGGCCUCAGAGCUGGAGAACAUCUUCGGAUGCAGAGGAGGCAGGGUUCGGUGGCGCGAUAGCGCCAACGUCCUUAACCUCCAAUGCAUCCCACCACAUGAUGAUGCCUGAAGAGCCUUGGUUUUUUG | -3.79
GACCAAUCUGGGCUCAGAGCUCGAGAACAUCUUCGGAUGCAGAGGAGGCAGGCUUAGGUGGCGCGAUAGCGCCAACGUCCUCAACCUCCAAUGCAUCCCACCACAUGAUGAUGCCUGGAGAGCCUUGGUUUUUUG | -0.95
GACCAAUCUGGCCUCAGAGCUCGAGAACAUCUUCGGAUGCAGAGGAGGCGGGCUUCGGUGGUGCGAUAGCGCCAACGUCCUCAACCUCCAAUGCAUCCCACCACAUGAUCAUGCCUGAAGAGCCUUGGUUUUUUG | -4.81
GACCAAUCUGGCCUAAGAGCUCGAGAACUUCUUCGGAUGCAGAGCAGGCAGGCUUCGGUGGCGCGAUAGCGCCAACAUCCUCAACCUCCAAUGCAUCCCACCACAUGAUGAUGCCUGAAAAGCCUUGUUUUUUUG | -5.34
GACCAAUCUGGACUCAGAGCUCGAGAACAUCUUCGGAGGCAGAGGAGGCAGGCUUCGGUGGCGCGAUAGCACCAACGUCCUCAACCUCCAAUGCAUCCCACCACACGAUGAUACCUGAAGAGCCUUGGUUUUUUG | -3.24
GACCAAUCUGGCCUAAGAGCUCGAGAACAUCUUCGGAUGCAGAGGAGGCAGGCUUCGGAGGCGCGAUAGCGCAAACGUCCUCAACCUCCAAUGCAUCCCACCACAUGAUGAUGCCUGAAGAGCCAUGGUUUUUUG | -1.02
GACCAAUCUGGCCUCAGAGUUCGAGAACAUCUUCGGAUGCAGAGGAGGCAGGCUUCGGUGGCGCGAUAUCGCCAACGUCCUCAUUCUCCAAUGCAUCCCACCACAUGAUGAUGCCUGAAGAACCUGGUUUUUUUG | -2.39
GACCAAUCUGGCCUAAGAGCUCGAGAACAUCUUCGGAUGCAGAGGAGGCAGGCUUCGGUGACGCGAUAGCGCCAACGUCCUCAACCUCCAAUGCAUCCCACCACAUGAUGAUGCCUGAAGAGCCGUGGUUUUUUG | -0.186
GACCAAUCUGGCUUCAGAGCUCGAGAACAUCUUCGGUUGCAGAGGAGGCAGGCUUCGGUGGCGCGAUAGCGCCAACGUCCUCCACCUCCAAUGCAUCCCACCACAUGAUGAUGCCUGAAGAGCCUUGGUUUUUUG | -0.361
GACCAAUCUGGCCUCAGAGCUCGAGAACAUCUUCGGAUGCAGAGGGGGCAGGCUUCGGUGGCGCGAUAGCGCCAACGUUCUUAACCUCCAAUGCAUCUCACCACAUGAUGAUGCCUGUAGAGCCUUGGUUUUUUG | -0.917
GACCAAUCUGGCUUCAGAGCUCGAGAACAUCCUCGGAUGCAGAGGAGGCAGGCUUCGGUGGCGCGAUGGCGCCAACGUCCUCAACCUCCAAUGCAUCCCACCACAUGAUGAUGCCUGAAGAGCCUUGGUUUUUUG | -3.2
GACCAAUCUGGGCUCAGAGCUCGAGAACAUCUUCGGAUGCAGAGGAGGCAGGCUUCGGUGGCGCGAUAGCGCCAACGUCCUCAACCUCCAAUGCAUCCCACCAAAAGAUGAUGCCUGAAGAGCCUUGGUUUUUUG | -3.92
GACCAAUCUGGCCUGAGAGCUCGAGAACAUCUUCGUAUGCAGAGGAGGCAGGCUUCGGUGGCGCGAUAGCGCCCACGUCCUCAACCUCCAAUGCAUCCCACCACAUGAUGAUGCCUCAAGAGCCUUGGUUUUUUG | 0.809
GACCAAUCUGGCCUGAGAGCUCGAGAACAUCUUCGGAUGCAGAGGAGGCAGGCUUCGGUGGCGCGAUAGCUCCAACGUCCUCAACCUCCAAUACAUCCCACCACAUGAUGAUGCCUGAAGAGCCUUGUUUUUUUG | -4.47
